Data published in patent US20240317847A1 (Bayer, published 2024).

Assays:
human IL2Ra = biological target: T1, human IL2Ra (human, UniProt P01589 22-240, limits assumed); experiment: ELISA on coated IL2Ra, signal ratio to isotype control at 1E-07 M antibody
T1 construct: coated on the ELISA plate; also called IL-2 receptor alpha
T1 sequence (looked up): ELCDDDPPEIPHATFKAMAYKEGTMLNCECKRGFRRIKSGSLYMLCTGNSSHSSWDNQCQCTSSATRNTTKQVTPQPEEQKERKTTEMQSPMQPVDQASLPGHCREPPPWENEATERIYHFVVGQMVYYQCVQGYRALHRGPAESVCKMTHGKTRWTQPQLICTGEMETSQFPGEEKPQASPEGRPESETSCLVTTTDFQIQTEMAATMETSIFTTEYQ
Procedure: IL2RA (Peprotech, Germany, #200-02RC) was coated at 1 or 0 μg/ml (buffer only control) in 30 μl coating buffer (Candor, #113500) per well on a 384 well microtiter plate (Maxisorb, Nunc, #460518) over night at 4-8° C. After two washes with 50 μl/well washing buffer (PBS+0.05% Tween, pH 7.4), the plates were incubated for two hours at room temperature with 50 μl/well SmartBlock (Candor, #113500). After blocking, the plates were washed three times with washing buffer. Then, a dilution series of the respective antibody (1E-7 [M] down to 2E-13 [M]) in PBS+0.05% Tween, 10% SmartBlock were added in 30 μl to the microtiter plate and incubated for 90 min at room temperature. After three additional washes, 30 μl anti mouse IgG HRP-conjugated antibody (Biotechne, HAF007), diluted 1:1000 in PBS+0.05% Tween (pH 7.4), were added per well and incubated for one hour. After three additional washes, a mixture of Amplex red (Invitrogen, #12222, 10 mM stock solution in DMSO) 1:1000 diluted in PBS and H2O2 (30%, Merck, #107209)) diluted 1:10000 in PBS were added as substrate with 30 μl per well and incubated for 20 min in the dark. Relative fluorescence was measured with a microtiter plate reader at 535/590 nm.
Bispecific antibodies were subjected to the experimental assay procedure described in Example 20. Ratios of the signals generated at an antibody concentration of 1E-07 [M] by the respective bispecific antibody versus those of an isotype control antibody were calculated and are shown in Table E29. The bispecific antibodies show no binding to IL-2 Ra.

murine IL-11 = biological target: T2, murine IL-11 (mouse, UniProt P47873 22-199); experiment: Tri-complex ELISA, mIL-11 + mIL-11Ra-Fc + mgp130-Fc, inhibition of complex formation
T2 construct: Invigate recombinant protein; biotinylated when immobilized in the Di-complex ELISA; also called mIL11; mIL-11
T2 sequence: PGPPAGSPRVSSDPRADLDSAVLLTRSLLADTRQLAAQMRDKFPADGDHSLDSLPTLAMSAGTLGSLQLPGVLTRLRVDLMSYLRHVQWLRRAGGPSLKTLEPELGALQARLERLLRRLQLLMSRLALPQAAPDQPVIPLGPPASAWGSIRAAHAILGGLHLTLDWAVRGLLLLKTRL
Procedure: In the Tri-complex ELISA format IL-11 antibodies are tested for their ability to inhibit the formation of a complex consisting of murine or human gp130-Fc fusion protein, with murine or human IL-11, and a murine IL11RA-Fc fusion protein. The assay format was adapted according to FIG. 18 (a, b), depending on whether murine or human IL-11 IgG antibodies were tested.
Bispecific antibodies were subjected to the experimental assay procedure described in Example 19 and IC50 [M], respectively efficacy (%) were calculated accordingly.

B1: TPP-29697 (bispecific antibody, IgG1)
chain 1: QVQLVESGGGVVQPGRSLRLSCAASGFTFSHYDMHWVRQAPGKGLEWVAVISYHGSVKFYADSVKGRFTISRDNSKNTLYLQMNSLRAEDTAVYYCARTPGFHFDYWGQGTLVTVSSGGGGSGGGGSGGGGSQSVLTQPPSASGTPGQRVTISCSGSSSNIGSNYVSWYQQLPGTAPKLLIYYDDLRPSGVPDRFSGSKSGTSASLAISGLRSEDEADYYCSAWDDSLSGVVFGGGTKLTVLGGGGSGGGGSGGGGSGVECPPCPAPPVAGPSVFLFPPKPKDTLMISRTPEVTCVVVGVSHEDPEVKFNWYVDGVEVHNAKTKPREEQYNSTYRVVSVLTVLHQDWLNGKEYKCKVSNKQLPSPIEKTISKAKGQPREPQVYTLPPCRDELTKNQVSLWCLVKGFYPSDIAVEWESNGQPENNYKTTPPVLDSDGSFFLYSKLTVDKSRWQQGNVFSCSVMHEALHNHYTQKSLSLSPGK
chain 2: EVQLLESGGGLVQPGGSLRLSCAASGFTFSSYGMHWVRQAPGKGLEWVAVISYDGSYKYYADSVKGRFTISRDNSKNTLYLQMNSLRAEDTAVYYCAAGVPDYWGQGTLVTVSSGGGGSGGGGSGGGGSQSVLTQPPSASGTPGQRVTISCSGSSSNIGSDYDVHWYQQLPGTAPKLLIYSNEERPSGVPDRFSGSKSGTSASLAISGLRSEDEADYYCSAWDSSLSGPVFGGGTKLTVLGGGGSGGGGSGGGGSGVECPPCPAPPVAGPSVFLFPPKPKDTLMISRTPEVTCVVVGVSHEDPEVKFNWYVDGVEVHNAKTKPREEQYNSTYRVVSVLTVLHQDWLNGKEYKCKVSNKQLPSPIEKTISKAKGQPREPQVCTLPPSRDELTKNQVSLSCAVKGFYPSDIAVEWESNGQPENNYKTTPPVLDSDGSFFLVSKLTVDKSRWQQGNVFSCSVMHEALHNHYTQKSLSLSPGK
notes: scFv-kih-hIgG1 with Fc-silencing mutations; bispecific comprising CDRs of TPP-29528 and TPP-29519
- Ratio IL-2Ra Binding Signal Antibody/Isotype Control (human IL2Ra): 0.8 ratio
- Efficacy (%) (murine IL-11): 104%
- IC50 (murine IL-11): 0.0622 nM

B2: TPP-29603 (bispecific antibody, IgG1)
chain 1: QVQLVESGGGVVQPGRSLRLSCAASGFTFSHYDMHWVRQAPGKGLEWVAVISYHGSVKFYADSVKGRFTISRDNSKNTLYLQMNSLRAEDTAVYYCARTPGFHFDYWGQGTLVTVSSGGGGSGGGGSGGGGSQSVLTQPPSASGTPGQRVTISCSGSSSNIGSNYVSWYQQLPGTAPKLLIYYDDLRPSGVPDRFSGSKSGTSASLAISGLRSEDEADYYCSAWDDSLSGVVFGGGTKLTVLGGGGSGGGGSGGGGSGVECPPCPAPPVAGPSVFIFPPKPKDVLTITLTPKVTCVVVDISKDDPEVQFSWFVDDVEVHTAQTQPREEQFNSTFRSVSELPIMHQDWLNGKEFKCRVNSAAFPAPIEKTISKTKGRPKAPQVYTIPPCKEQMAKDKVSLWCMITDFFPEDITVEWQWNGQPAENYKNTQPIMDTDGSYFVYSKLNVQKSNWEAGNTFTCSVLHEGLHNHHTEKSLSHSPGK
chain 2: EVQLLESGGGLVQPGGSLRLSCAASGFTFSSYGMHWVRQAPGKGLEWVAVISYDGSYKYYADSVKGRFTISRDNSKNTLYLQMNSLRAEDTAVYYCAAGVPDYWGQGTLVTVSSGGGGSGGGGSGGGGSQSVLTQPPSASGTPGQRVTISCSGSSSNIGSDYDVHWYQQLPGTAPKLLIYSNEERPSGVPDRFSGSKSGTSASLAISGLRSEDEADYYCSAWDSSLSGPVFGGGTKLTVLGGGGSGGGGSGGGGSGVECPPCPAPPVAGPSVFIFPPKPKDVLTITLTPKVTCVVVDISKDDPEVQFSWFVDDVEVHTAQTQPREEQFNSTFRSVSELPIMHQDWLNGKEFKCRVNSAAFPAPIEKTISKTKGRPKAPQVCTIPPPKEQMAKDKVSLSCAITDFFPEDITVEWQWNGQPAENYKNTQPIMDTDGSYFVVSKLNVQKSNWEAGNTFTCSVLHEGLHNHHTEKSLSHSPGK
notes: scFv-kih-mIgG1; bispecific comprising CDRs of TPP-29528 and TPP-29519
- Ratio IL-2Ra Binding Signal Antibody/Isotype Control (human IL2Ra): 1.9 ratio
- Efficacy (%) (murine IL-11): 98.5%
- IC50 (murine IL-11): 0.17 nM
